Test results: article PMC2928300, “Transcriptional Regulation of Human and Rat Hepatic Lipid Metabolism by the Grapefruit Flavonoid Naringenin: Role of PPARα, PPARγ and LXRα” (PLoS ONE, 2010)

Tests used:
[1] = target: recombinant LXRα ligand-binding domain, GST-tagged; test: FRET or BRET; LanthaScreen TR-FRET coactivator assay, cell-free, antagonist mode: GST-LXRα LBD, fluorescein Trap220 peptide, TO901317 at its EC80 in all wells (250 nM by methods and legend, 1 µM by the results text), increasing naringenin
[2] = target: recombinant LXRα ligand-binding domain, GST-tagged; test: FRET or BRET; LanthaScreen TR-FRET coactivator assay, cell-free, agonist mode: GST-LXRα LBD labelled by terbium anti-GST antibody, fluorescein Trap220 peptide, increasing naringenin; percent activation compared to maximal activation of positive control (TO901317)
LXRα [3] = target: T1, LXRα (Homo sapiens, UniProt Q13133); test: LanthaScreen TR-FRET coactivator recruitment, agonist and antagonist modes, purified LBD; supported by GAL4-LBD reporter; assay type: biochemical
T1 construct: gene NR1H3
T1 sequence (Q13133 209-447 limits assumed): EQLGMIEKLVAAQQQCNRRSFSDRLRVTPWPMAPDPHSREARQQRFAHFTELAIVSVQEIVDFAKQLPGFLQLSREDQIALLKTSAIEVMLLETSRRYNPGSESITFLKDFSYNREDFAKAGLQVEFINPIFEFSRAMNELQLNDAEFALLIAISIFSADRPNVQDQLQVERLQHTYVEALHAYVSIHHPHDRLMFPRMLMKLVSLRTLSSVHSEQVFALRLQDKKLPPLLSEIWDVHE

PPARγ = target: T2, PPARγ (Homo sapiens, UniProt P37231); test: GAL4-PPARγ LBD luciferase reporter in HG5LN (HeLa) cells; assay type: cell-based; details: read-out: % activation at 80 μM
T2 construct: gene PPARG; GAL4(1–147)-PPARγ LBD fusion
T2 sequence (P37231 231-505 limits assumed): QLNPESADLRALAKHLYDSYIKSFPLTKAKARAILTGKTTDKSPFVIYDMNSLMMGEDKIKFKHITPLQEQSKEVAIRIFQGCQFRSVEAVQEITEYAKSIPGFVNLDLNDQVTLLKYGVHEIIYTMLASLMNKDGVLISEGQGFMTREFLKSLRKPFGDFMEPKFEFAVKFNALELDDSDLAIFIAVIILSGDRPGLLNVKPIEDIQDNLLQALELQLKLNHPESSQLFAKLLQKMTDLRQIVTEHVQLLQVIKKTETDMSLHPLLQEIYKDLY

LXRα [4] = target: T1, LXRα; test: LanthaScreen TR-FRET coactivator recruitment, purified LBD (EC80 measured in this assay); assay type: binding

“fluorescein-labeled Trap 220/Drip-2 co-activator peptide” gave a percent inhibition of binding by 133 µM naringenin in the presence of 1 µM TO901317 [1] of 11.6%, a percent inhibition of the TR-FRET signal by 133 µM naringenin with 250 nM TO901317 [1] of 15% and a percent activation of TR-FRET signal with naringenin, relative to TO901317 [2] of 38%.

In the case of `O=C1C[C@@H](c2ccc(O)cc2)Oc2cc(O)cc(O)c21` [naringenin], the “% activation” value (LXRα [3]) is reported as 38.0±2.8 % activation and the Emax at 80 µM (PPARγ) is reported as 57 ± 0.3%.

In the case of `O=S(=O)(c1ccccc1)N(CC(F)(F)F)c1ccc(C(O)(C(F)(F)F)C(F)(F)F)cc1` [TO901317], the “LanthaScreen TR-FRET coactivator recruitment, purified LBD (EC80 measured in thi)” value (LXRα [4]) is reported as 250 nM.
